“And” between values parts separate entries of the source, which are not always exact repeats. Equal entries are not always repeated.
Biological target: H2AK119Ub nucleosome (UniProt P04908)
Assay: cryo-EM structure

Chain of GST-SSX1 (human SSX1 residues 111-188 with an N-terminal GST tag) (Q16384 111-188): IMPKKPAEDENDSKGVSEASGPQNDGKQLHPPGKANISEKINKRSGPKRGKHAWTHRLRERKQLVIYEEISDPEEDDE

GST-SSX1 (human SSX1 residues 111-188 with an N-terminal GST tag) (from UniProt Q16384 111-188) (domain or fragment)
stoichiometry N (SSX1 per nucleosome): 2 and 1

Reference: publication doi:10.1101/2023.07.08.548231
